Reference: patent US20040234990A1, “Method of screening alzheimer's disease-associated gene” (priority 2001, published 2004)

Columns and labels:
[1] = tested on: A5-9 cells; experiment: Puromycin sensitivity of the parent strain; type: cell-based, mouse
Source text: (§1) The DNA that controls the production of Aβ is investigated as follows. First, the DNA library is transfected to the cell line where the two recombinant gene constructs described above are introduced (hereinafter referred to as the parent strain). Thereafter, for example, when a drug resistant gene is used as the selection marker, a cell bearing the DNA to enhance the concentration of the corresponding drug and become resistant in the presence of the drug even at a high concentration is selected. […]
(§2) The A5-9 cells or A5-9-PS1 cells described in EXAMPLE 4, to which the human hippocampus cDNA library was transfected through the infection with retrovirus, were cultured in the presence of puromycin of a high concentration (A5-9 cells, 25 μg/ml; A5-9-PS1 cells, 9 μg/ml). […] The concentrations of puromycin used were determined based on the respective minimum puromycin concentrations of 20 μg/ml and 5 μg/ml, at which the A5-9 cells and A5-9-PS1 cells as the parent strain were extinct. […] That is, Aβ was detected as follows. The Aβ secreted in a medium by incubation for 3 days (initial cell concentration of 2×10^5 cells/ml, medium of 3 ml) was immunoprecipitated by anti-Aβ monoclonal antibody 6E10 and the deposits were detected by high sensitive western blotting using anti-Aβ antibody. […]

[2] = tested on: A5-9-PS1 cells; experiment: Puromycin sensitivity of the parent strain; type: cell-based, mouse
Source text: as §1, §2

[3] = tested on: HEK293 cells where APP and PS1 were overexpressed; experiment: Aβ secreted into the medium by HEK293 cells transfected with cDNA in pcDNA3, assayed by ELISA; type: cell-based; settings: for Fold increase in Aβ42 versus vector control: rate of increase compared to vector-alone control
Source text: From the clones selected in EXAMPLE 5 above to increase the production of Aβ, human hippocampus-derived cDNA was amplified by PCR using virus vector pMX sites as primers (which were identified to be sense strand primer, SEQ ID NO: 16; […] and antisense strand primer, SEQ ID NO: 17; […]). The cDNA obtained was ligated with vector pcDNA3 (Invitrogen, Inc.), which was transfected to 4×10^5 cells of HEK293 cells (Tomita S., et al., J. Biol. Chem. 273: 19304-19310, 1998; Tomita S., et al., J. Biol. Chem. 275: 13056-13060, 2000) where APP and PS1 were overexpressed. One day after, the medium was changed to a new medium followed by incubation for 24 hours. The amount of Aβ selected in the medium was assayed by ELISA (Asami-Odaka, A. et al., 34:10272, 1995). It was found so far that 3 kinds of human hippocampus-derived cDNAs increased the amount of Aβ produced (TABLE 2). One of them was identified to be identical with human cDNA (accession No. AAH06223) registered in Genbank. In the following procedures of the present invention, this cDNA was named gene A (SEQ ID NO: 4) and the protein encoding the cDNA was named Protein A (SEQ ID NO: 1). […] The one found to be a gene to control the production of Aβ was a protein, Herp (Kokame K. et al., J. Biol. Chem. 275: 3286, 2000; accession no. AB034989) (cDNA: SEQ ID NO: 5, protein: SEQ ID NO: 2), which was localized in the endoplasmic reticulum and its expression was induced by endoplasmic reticulum stress but its function was unknown. Further the other one found to be a gene to control the production of Aβ was cDNA (cDNA: SEQ ID NO: 6, protein: SEQ ID NO: 3) containing the 1-389 internal sequence from the N terminus of 5-lipoxygenase (accession no. XM 005818).

[4] = Aβ in medium after 24 hours incubation, mean of 2 samples, vector control value in parenthesis

Molecule | minimum puromycin concentration at which the cells were extinct [1] | minimum puromycin concentration at which the cells were extinct [2] | Aβ40 Concentration [pM] [3, 4] | Aβ42 Concentration [pM] [3, 4] | Fold increase in Aβ42 versus vector control ([3]; column beside the Aβ40 concentration) | Fold increase in Aβ42 versus vector control ([3]; column beside the Aβ42 concentration)
COc1ccc(C[C@H](N)C(=O)N[C@H]2[C@@H](O)[C@H](n3cnc4c(N(C)C)ncnc43)O[C@@H]2CO)cc1 [puromycin] | 20 µg/mL | 5 µg/mL |  |  |  | 
Protein A: human cDNA (Genbank AAH06223, SEQ ID NO: 4) encoding Protein A (SEQ ID NO: 1), function unknown (nucleic acid, Human) DNA: ATGTCGACGGCGGCGGTTCCGGAGCTGAAGCAGATCAGCCGGGTGGAGGCGATGCGCCTAGGGCCGGGCTGGAGCCACTCGTGCCACGCCATGCTGTACGCCGCCAACCCTGGGCAGCTCTTCGGCCGCATCCCCATGCGCTTCTCGGTGCTGATGCAGATGCGTTTCGACGGGCTGCTGGGCTTCCCCGGGGGCTTCGTGGACCGGCGCTTCTGGTCGCTGGAGGACGGCCTGAACCGGGTGCTGGGCCTGGGCCTGGGCTGCCTGCGCCTCACCGAGGCCGACTACCTGAGCTCGCACCTGACCGAGGGCCCACACCGCGTCGTGGCGCACCTGTACGCGCGGCAGCTGACGCTGGAGCAGCTGCACGCCGTGGAGATCAGCGCGGTGCACTCGCGCGACCACGGCCTGGAGGTGCTGGGCCTCGTGCGGGTCCCGCTGTACACCCAGAAGGACCGAGTCGGAGGCTTCCCCAACTTCCTGAGCAACGCCTTCGTGAGCACGGCTAAGTGCCAGCTCCTCTTTGCCCTCAAGGTGCTCAACATGATGCCCGAGGAGAAGCTGGTTGAGGCCCTGGCTGCAGCCACCGAGAAGCAGAAGAAGGCCCTGGAGAAGTTGCTCCCGGCCTCCTCT |  |  | 378 ± 10 (232 ± 34) pM | 88 ± 22 (45 ± 2) pM | 1.6 | 2.0
